Target: IMP3 KH1-2 WT (human, UniProt O00425 192-355)
Assay: ITC

Sequence of IMP3 KH1-2 WT (O00425 192-355): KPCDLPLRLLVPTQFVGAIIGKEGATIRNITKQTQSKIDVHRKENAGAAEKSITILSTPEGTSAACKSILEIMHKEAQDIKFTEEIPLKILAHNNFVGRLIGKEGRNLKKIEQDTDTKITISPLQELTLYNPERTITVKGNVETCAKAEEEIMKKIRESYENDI

B1: 34-mer (ssRNA)
RNA: AACACAAUUUUGGAGGAACUACAGAAUGCGGCUA
binding signal: ~10 fold higher affinity than 7-mer RNAs

— article doi:10.1101/398008
